# Measurements: patent publication US20140348819A1, “Methods of Treating Cancer” (Dana-Farber Cancer Institute, Inc., priority 2011, published 2014)
# B1: flt-3 ligand (FL) (protein, UniProt P49771 27-235, looked up)
# Fms-related tyrosine kinase 3 …: TQDCSFQHSPISSDFAVKIRELSDYLLQDYPVTVASNLQDEELCGGLWRLVLAQRWMERLKTVAGSKMQGLLERVNTEIHFVTKCAFQPPPSCLRFVQTNISRLLQETSEQLVALKPWITRQNFSRCLELQCQPDSSTLPPPWSPRPLEATAPTAPQPPLLLLLLLPVGLLLLAAAWCLHWQRTRRRTPRPGEQVPPVPSPQDLLLVEH
# Tested on: six V600E BRAF melanoma cell lines
# Test: Screening of recombinant RTK ligands for ability to confer resistance to BRAFi (PLX4720) or MEKi (PD184352) (Table 4)
# Format: cell-based, human
# Parameters: ability of recombinant RTK ligand to confer resistance / ability of recombinant RTK ligand to confer resistance (screening value): scale not given here
# Outline: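 Resistance to BRAFi (PLX4720) or MEKi (PD184352) was tested in six V600E BRAF melanoma lines given one of 22 recombinant RTK ligands. For a subset of RTKs, activation was checked by high-throughput tyrosine kinase phosphorylation profiling and western blot.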
molecule,measurement,setting,value
B1,ability of recombinant RTK ligand to confer resistance,"A2058, PD184352 - 1 uM, ligand 0.4 ng/ml",1.03
same,ability of recombinant RTK ligand to confer resistance,"A2058, PD184352 - 1 uM, ligand 1.6 ng/ml",0.99
same,ability of recombinant RTK ligand to confer resistance,"A2058, PD184352 - 1 uM, ligand 6.25 ng/ml",1.00
same,ability of recombinant RTK ligand to confer resistance,"A2058, PD184352 - 1 uM, ligand 25 ng/ml",1.02
same,ability of recombinant RTK ligand to confer resistance,"A2058, PD184352 - 1 uM, ligand 100 ng/ml",0.89
same,ability of recombinant RTK ligand to confer resistance,"A2058, PLX4720 - 2 uM, ligand 0.4 ng/ml",0.97
same,ability of recombinant RTK ligand to confer resistance,"A2058, PLX4720 - 2 uM, ligand 1.6 ng/ml",0.98
same,ability of recombinant RTK ligand to confer resistance,"A2058, PLX4720 - 2 uM, ligand 6.25 ng/ml",1.01
same,ability of recombinant RTK ligand to confer resistance,"A2058, PLX4720 - 2 uM, ligand 25 ng/ml",1.06
same,ability of recombinant RTK ligand to confer resistance,"A2058, PLX4720 - 2 uM, ligand 100 ng/ml",0.93
same,ability of recombinant RTK ligand to confer resistance,"C32, PD184352 - 1 uM, ligand 0.4 ng/ml",1.02
same,ability of recombinant RTK ligand to confer resistance,"C32, PD184352 - 1 uM, ligand 1.6 ng/ml",1.08
same,ability of recombinant RTK ligand to confer resistance,"C32, PD184352 - 1 uM, ligand 6.25 ng/ml",1.10
same,ability of recombinant RTK ligand to confer resistance,"C32, PD184352 - 1 uM, ligand 25 ng/ml",1.08
same,ability of recombinant RTK ligand to confer resistance,"C32, PD184352 - 1 uM, ligand 100 ng/ml",1.07
same,ability of recombinant RTK ligand to confer resistance,"C32, PLX4720 - 2 uM, ligand 0.4 ng/ml",0.99
same,ability of recombinant RTK ligand to confer resistance,"C32, PLX4720 - 2 uM, ligand 1.6 ng/ml",0.97
same,ability of recombinant RTK ligand to confer resistance,"C32, PLX4720 - 2 uM, ligand 6.25 ng/ml",1.00
same,ability of recombinant RTK ligand to confer resistance,"C32, PLX4720 - 2 uM, ligand 25 ng/ml",0.87
same,ability of recombinant RTK ligand to confer resistance,"C32, PLX4720 - 2 uM, ligand 100 ng/ml",0.97
same,ability of recombinant RTK ligand to confer resistance,"Colo 829, PD184352 - 1 uM, ligand 0.4 ng/ml",1.07
same,ability of recombinant RTK ligand to confer resistance,"Colo 829, PD184352 - 1 uM, ligand 1.6 ng/ml",0.98
same,ability of recombinant RTK ligand to confer resistance,"Colo 829, PD184352 - 1 uM, ligand 6.25 ng/ml",0.97
same,ability of recombinant RTK ligand to confer resistance,"Colo 829, PD184352 - 1 uM, ligand 25 ng/ml",1.05
same,ability of recombinant RTK ligand to confer resistance,"Colo 829, PD184352 - 1 uM, ligand 100 ng/ml",0.97
same,ability of recombinant RTK ligand to confer resistance,"Colo 829, PLX4720 - 2 uM, ligand 0.4 ng/ml",1.08
same,ability of recombinant RTK ligand to confer resistance,"Colo 829, PLX4720 - 2 uM, ligand 1.6 ng/ml",0.98
same,ability of recombinant RTK ligand to confer resistance,"Colo 829, PLX4720 - 2 uM, ligand 6.25 ng/ml",1.00
same,ability of recombinant RTK ligand to confer resistance,"Colo 829, PLX4720 - 2 uM, ligand 25 ng/ml",1.05
same,ability of recombinant RTK ligand to confer resistance,"Colo 829, PLX4720 - 2 uM, ligand 100 ng/ml",0.97
same,ability of recombinant RTK ligand to confer resistance,"G-361, PD184352 - 1 uM, ligand 0.4 ng/ml",1.04
same,ability of recombinant RTK ligand to confer resistance,"G-361, PD184352 - 1 uM, ligand 1.6 ng/ml",1.09
same,ability of recombinant RTK ligand to confer resistance,"G-361, PD184352 - 1 uM, ligand 6.25 ng/ml",0.97
same,ability of recombinant RTK ligand to confer resistance,"G-361, PD184352 - 1 uM, ligand 25 ng/ml",1.01
same,ability of recombinant RTK ligand to confer resistance,"G-361, PD184352 - 1 uM, ligand 100 ng/ml",0.89
same,ability of recombinant RTK ligand to confer resistance,"G-361, PLX4720 - 2 uM, ligand 0.4 ng/ml",1.00
same,ability of recombinant RTK ligand to confer resistance,"G-361, PLX4720 - 2 uM, ligand 1.6 ng/ml",0.87
same,ability of recombinant RTK ligand to confer resistance,"G-361, PLX4720 - 2 uM, ligand 6.25 ng/ml",0.88
same,ability of recombinant RTK ligand to confer resistance,"G-361, PLX4720 - 2 uM, ligand 25 ng/ml",0.88
same,ability of recombinant RTK ligand to confer resistance,"G-361, PLX4720 - 2 uM, ligand 100 ng/ml",0.79
same,ability of recombinant RTK ligand to confer resistance,"SK-MEL-5, PD184352 - 1 uM, ligand 0.4 ng/ml",0.97
same,ability of recombinant RTK ligand to confer resistance,"SK-MEL-5, PD184352 - 1 uM, ligand 1.6 ng/ml",0.97
same,ability of recombinant RTK ligand to confer resistance,"SK-MEL-5, PD184352 - 1 uM, ligand 6.25 ng/ml",1.00
same,ability of recombinant RTK ligand to confer resistance,"SK-MEL-5, PD184352 - 1 uM, ligand 25 ng/ml",0.92
same,ability of recombinant RTK ligand to confer resistance,"SK-MEL-5, PD184352 - 1 uM, ligand 100 ng/ml",0.90
same,ability of recombinant RTK ligand to confer resistance,"SK-MEL-5, PLX4720 - 2 uM, ligand 0.4 ng/ml",1.07
same,ability of recombinant RTK ligand to confer resistance,"SK-MEL-5, PLX4720 - 2 uM, ligand 1.6 ng/ml",1.07
same,ability of recombinant RTK ligand to confer resistance,"SK-MEL-5, PLX4720 - 2 uM, ligand 6.25 ng/ml",1.03
same,ability of recombinant RTK ligand to confer resistance,"SK-MEL-5, PLX4720 - 2 uM, ligand 25 ng/ml",0.93
same,ability of recombinant RTK ligand to confer resistance,"SK-MEL-5, PLX4720 - 2 uM, ligand 100 ng/ml",1.04
same,ability of recombinant RTK ligand to confer resistance,"SK-MEL-28, PD184352 - 1 uM, ligand 0.4 ng/ml",1.04
same,ability of recombinant RTK ligand to confer resistance,"SK-MEL-28, PD184352 - 1 uM, ligand 1.6 ng/ml",0.95
same,ability of recombinant RTK ligand to confer resistance,"SK-MEL-28, PD184352 - 1 uM, ligand 6.25 ng/ml",0.98
same,ability of recombinant RTK ligand to confer resistance,"SK-MEL-28, PD184352 - 1 uM, ligand 25 ng/ml",0.78
same,ability of recombinant RTK ligand to confer resistance,"SK-MEL-28, PD184352 - 1 uM, ligand 100 ng/ml",0.99
same,ability of recombinant RTK ligand to confer resistance,"SK-MEL-28, PLX4720 - 2 uM, ligand 0.4 ng/ml",0.94
same,ability of recombinant RTK ligand to confer resistance,"SK-MEL-28, PLX4720 - 2 uM, ligand 1.6 ng/ml",0.90
same,ability of recombinant RTK ligand to confer resistance,"SK-MEL-28, PLX4720 - 2 uM, ligand 6.25 ng/ml",0.86
same,ability of recombinant RTK ligand to confer resistance,"SK-MEL-28, PLX4720 - 2 uM, ligand 25 ng/ml",0.82
same,ability of recombinant RTK ligand to confer resistance,"SK-MEL-28, PLX4720 - 2 uM, ligand 100 ng/ml",0.98
